± gives the uncertainty stated by the source.
Assay: self-splicing fitness, log relative to wild type (ln ratio); higher = more splicing; Tetrahymena group I intron in knt gene, E. coli kanamycin selection, DiMSum; sequences stand for … in CUCUCU…GGAGGGAAAAGUUAUCAGGCAUGCACCUGGUAGCUAGUCUUUAAACCAAUAGAUUGCAUCGGUUUAAAAGGCAAGACCGUCAAAUUGCGGGAAAGGGGUCAACAGCCGUUCAGUACCAAGUCUCAGGGGAAACUUUGAGAUGGCCUUGCAAAGGGUAUGGUAAUAAGCUGACGGACAUGGUCCUAACCACGCAGCCAAGUCCUAAGUCAACAGAUCUUCUGUUGAUAUGGAUGCAGUUCACAGACUAAAUGUCGGUCGGGGAAGAUGUAUUCUUCUCAUAAGAUAUAGUCGGACCUCUCCUUAAUGGGAGCUAGCGGAUGAAGUGAUGCAACACUGGAGCCGCUGGGAACUAAUUUGUAUGCGAAAGUAUAUUGAUUAGUUUUGGAGUACUCGUGGUCG
In short: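 A randomised library covering all eight P1ex-region intron nucleotides was built with the intron in the knt kanamycin-resistance gene on pET-22b(+) and held in E. coli BL21(DE3). Cells were grown overnight at 37°C or 30°C on LB agar, with or without 25 μg/mL kanamycin, plus 100 μg/mL carbenicillin, 50 μM IPTG and 0.2% rhamnose, and pooled colonies were amplicon-sequenced on an Illumina HiSeq 2500. DiMSum fitness is the error-weighted combination of wild-type-normalised replicate fold changes, kanamycin versus none.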

| Sequence | self-splicing fitness (ln) (30 °C) | self-splicing fitness (ln) (37 °C) |
| --- | --- | --- |
| ACCCAGCAAUAUUACGGUCU | -1.12 ± 0.038 | -0.171 ± 0.052 |
| ACCCAGCAAUAUUACGGUUA | -0.324 ± 0.059 | -0.361 ± 0.06 |
| ACCCAGCAAUAUUACGUGCG | -3.12 ± 0.13 | -1.85 ± 0.098 |
| ACCCAGCAAUAUUACGUGUA | -1.38 ± 0.06 | -0.689 ± 0.064 |
| ACCCAGCAAUAUUACGUUAU | -1.91 ± 0.064 | -1.04 ± 0.081 |
| ACCCAGCAAUAUUACGUUUU | -1.41 ± 0.048 | -0.336 ± 0.066 |
| ACCGAGCAAUAUUACGAAAC |  | -2.95 ± 0.37 |
| ACCGAGCAAUAUUACGACAA | -2.37 ± 0.22 | -2.4 ± 0.26 |
| ACCGAGCAAUAUUACGACGC | -0.285 ± 0.089 | -0.16 ± 0.11 |
| ACCGAGCAAUAUUACGAGCA | -2.63 ± 0.13 | -1.99 ± 0.13 |
| ACCGAGCAAUAUUACGAUCC | -2.86 ± 0.34 | -1.94 ± 0.29 |
| ACCGAGCAAUAUUACGAUCU | -1.66 ± 0.14 | -0.405 ± 0.15 |
| ACCGAGCAAUAUUACGCAGG | -4.2 ± 0.47 | -2.65 ± 0.41 |
| ACCGAGCAAUAUUACGCGGG | -3.85 ± 0.18 | -2.89 ± 0.19 |
| ACCGAGCAAUAUUACGCUAA | -3.28 ± 0.32 | -2.05 ± 0.28 |
| ACCGAGCAAUAUUACGGAAA | -2.92 ± 0.12 | -2.5 ± 0.12 |
| ACCGAGCAAUAUUACGGAUU | -3.51 ± 0.16 | -1.94 ± 0.16 |
| ACCGAGCAAUAUUACGGCAG | -4.4 ± 0.39 |  |
| ACCGAGCAAUAUUACGGGCC | -3.39 ± 0.17 | -2.09 ± 0.15 |
| ACCGAGCAAUAUUACGGGGC | -3.64 ± 0.2 | -2.47 ± 0.2 |
| ACCGAGCAAUAUUACGGGUC | -4.23 ± 0.14 | -3.06 ± 0.14 |
| ACCGAGCAAUAUUACGGGUU | -2.85 ± 0.12 | -2.54 ± 0.18 |
| ACCGAGCAAUAUUACGGUAG | -3.75 ± 0.23 | -2.73 ± 0.24 |
| ACCGAGCAAUAUUACGUAAA | -4.22 ± 0.29 | -1.66 ± 0.19 |

| Sequence | self-splicing fitness (ln) (30 °C) | self-splicing fitness (ln) (37 °C) |
| --- | --- | --- |
| ACCGAGCAAUAUUACGUAAG | -2.67 ± 0.13 | -2.13 ± 0.16 |
| ACCGAGCAAUAUUACGUAUG | -3.56 ± 0.15 | -2.28 ± 0.15 |
| ACCGAGCAAUAUUACGUCUG | -2.37 ± 0.095 | -2.28 ± 0.14 |
| ACCGAGCAAUAUUACGUGUA | -2.2 ± 0.13 | -1.49 ± 0.096 |
| ACCGAGCAAUAUUACGUUCG | -3.19 ± 0.48 | -1.76 ± 0.23 |
| ACCUAGCAAUAUUACGAACA | -2.24 ± 0.29 | 0.383 ± 0.2 |
| ACCUAGCAAUAUUACGAACC | -1.67 ± 0.16 | -1.07 ± 0.19 |
| ACCUAGCAAUAUUACGAAUG | -3.04 ± 0.15 | -2.3 ± 0.13 |
| ACCUAGCAAUAUUACGACAU | -0.784 ± 0.011 | -0.119 ± 0.032 |
| ACCUAGCAAUAUUACGACUA | -2.72 ± 0.21 | -1.78 ± 0.23 |
| ACCUAGCAAUAUUACGAGAU | -2.54 ± 0.091 | -1.3 ± 0.098 |
| ACCUAGCAAUAUUACGAUAA | -2.61 ± 0.27 | -2.1 ± 0.23 |
| ACCUAGCAAUAUUACGAUGG | -3.01 ± 0.17 | -0.981 ± 0.18 |
| ACCUAGCAAUAUUACGAUUG | -3.2 ± 0.21 | -2.28 ± 0.25 |
| ACCUAGCAAUAUUACGCAAG | -2.73 ± 0.15 | -2.2 ± 0.18 |
| ACCUAGCAAUAUUACGCCUA | -2.17 ± 0.3 | -2.38 ± 0.3 |
| ACCUAGCAAUAUUACGCGCU | 0.00461 ± 0.076 | -0.0669 ± 0.096 |
| ACCUAGCAAUAUUACGCUGG | -4.07 ± 0.35 | -2.53 ± 0.22 |
| ACCUAGCAAUAUUACGGCGG | -1.36 ± 0.12 | -1.6 ± 0.14 |
| ACCUAGCAAUAUUACGGGAA | -1.62 ± 0.11 | -0.345 ± 0.11 |
| ACCUAGCAAUAUUACGGGCU | -1.51 ± 0.076 | -1.35 ± 0.094 |
| ACCUAGCAAUAUUACGGGGA | -1.11 ± 0.08 | -0.794 ± 0.096 |
| ACCUAGCAAUAUUACGGGGG | -3.84 ± 0.2 | -1.59 ± 0.17 |
| ACCUAGCAAUAUUACGUCAG | -3.93 ± 0.19 | -1.85 ± 0.1 |

Source: the supplement of paper PMC7877785
